Laboratory results taken from US20090192084A1 (CALIFORNIA INSTITUTE OF TECHNOLOGY, published 2009).

T1: endogenous NPL4 (human, UniProt Q8TAT6-2 2-617, limits assumed)
T1 sequence (looked up): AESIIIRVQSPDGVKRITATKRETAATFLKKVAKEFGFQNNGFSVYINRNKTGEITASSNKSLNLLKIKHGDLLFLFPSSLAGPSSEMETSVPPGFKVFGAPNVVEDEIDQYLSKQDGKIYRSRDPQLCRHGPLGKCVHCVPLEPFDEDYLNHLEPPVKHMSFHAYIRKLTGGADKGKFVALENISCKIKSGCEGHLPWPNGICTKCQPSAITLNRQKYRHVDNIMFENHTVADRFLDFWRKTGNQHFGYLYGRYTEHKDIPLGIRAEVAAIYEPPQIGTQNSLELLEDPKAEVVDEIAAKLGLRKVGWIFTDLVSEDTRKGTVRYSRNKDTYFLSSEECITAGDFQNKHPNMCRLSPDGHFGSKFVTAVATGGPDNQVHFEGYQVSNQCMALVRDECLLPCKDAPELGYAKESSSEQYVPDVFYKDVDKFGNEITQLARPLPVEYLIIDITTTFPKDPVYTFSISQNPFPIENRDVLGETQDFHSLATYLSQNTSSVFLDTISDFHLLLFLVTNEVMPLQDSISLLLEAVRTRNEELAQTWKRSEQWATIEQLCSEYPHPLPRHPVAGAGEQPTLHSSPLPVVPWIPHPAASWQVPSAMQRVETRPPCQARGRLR

T2: Ubiquitin conjugation factor E4 B, UBE4B (Ufd2ortholog) (human, UniProt O95155 1-1302)
T2 sequence (looked up): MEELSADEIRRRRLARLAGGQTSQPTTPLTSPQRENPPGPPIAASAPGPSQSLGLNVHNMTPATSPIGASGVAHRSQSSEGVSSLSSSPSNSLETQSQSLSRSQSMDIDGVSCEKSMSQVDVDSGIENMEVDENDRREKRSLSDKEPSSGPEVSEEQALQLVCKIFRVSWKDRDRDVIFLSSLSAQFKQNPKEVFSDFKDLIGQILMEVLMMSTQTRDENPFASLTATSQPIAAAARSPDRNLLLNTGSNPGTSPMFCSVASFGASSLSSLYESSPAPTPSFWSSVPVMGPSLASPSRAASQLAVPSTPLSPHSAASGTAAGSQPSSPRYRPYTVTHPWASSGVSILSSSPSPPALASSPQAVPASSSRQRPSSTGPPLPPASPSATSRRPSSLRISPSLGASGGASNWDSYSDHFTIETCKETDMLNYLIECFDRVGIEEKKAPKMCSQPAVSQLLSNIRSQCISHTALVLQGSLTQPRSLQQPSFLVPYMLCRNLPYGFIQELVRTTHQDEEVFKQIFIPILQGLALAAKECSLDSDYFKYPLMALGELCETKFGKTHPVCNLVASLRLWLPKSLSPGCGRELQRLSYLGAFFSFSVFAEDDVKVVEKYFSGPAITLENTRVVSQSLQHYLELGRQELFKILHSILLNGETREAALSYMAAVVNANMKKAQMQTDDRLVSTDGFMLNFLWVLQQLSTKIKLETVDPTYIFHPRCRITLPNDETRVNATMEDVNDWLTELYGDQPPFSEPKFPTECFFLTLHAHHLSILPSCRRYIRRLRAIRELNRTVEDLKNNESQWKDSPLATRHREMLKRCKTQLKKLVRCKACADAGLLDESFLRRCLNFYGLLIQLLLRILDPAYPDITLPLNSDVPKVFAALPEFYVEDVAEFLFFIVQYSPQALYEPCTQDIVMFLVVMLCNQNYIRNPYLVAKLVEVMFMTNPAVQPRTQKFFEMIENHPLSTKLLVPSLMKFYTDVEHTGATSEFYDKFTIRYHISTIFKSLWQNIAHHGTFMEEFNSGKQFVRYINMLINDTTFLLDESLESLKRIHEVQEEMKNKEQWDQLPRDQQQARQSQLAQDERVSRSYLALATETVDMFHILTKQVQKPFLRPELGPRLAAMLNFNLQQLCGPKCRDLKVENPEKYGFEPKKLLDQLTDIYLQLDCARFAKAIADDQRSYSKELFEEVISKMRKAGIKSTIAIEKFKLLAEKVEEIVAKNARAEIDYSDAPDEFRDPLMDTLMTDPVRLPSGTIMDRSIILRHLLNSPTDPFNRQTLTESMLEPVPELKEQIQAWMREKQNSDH

B1: Flag-UBXD7ΔUBX (other, not shown: small tags and cut ends)
chain: MAAHGGSAASSALKGLIQQFTTITGASESVGKHMLEACNNNLEMAVTMFLDGGGIAEEPSTSSASVSTVRPHTEEEVRAPIPQKQEILVEPEPLFGAPKRRRPARSIFDGFRDFQTETIRQEQELRNGGAIDKKLTTLADLFRPPIDLMHKGSFETAKECGQMQNKWLMINIQNVQDFACQCLNRDVWSNEAVKNIIREHFIFWQVYHDSEEGQRYIQFYKLGDFPYVSILDPRTGQKLVEWHQLDVSSFLDQVTGFLGEHGQLDGLSSSPPKKCARSESLIDASEDSQLEAAIRASLQETHFDSTQTKQDSRSDEESESELFSGSEEFISVCGSDEEEEVENLAKSRKSPHKDLGHRKEENRRPLTEPPVRTDPGTATNHQGLPAVDSEILEMPPEKAD
notes: also called UBXD7(1-400); truncated UBXD7
B2: endogenous UBXD7 (other, human, UniProt O94888 2-489, looked up)
chain: AAHGGSAASSALKGLIQQFTTITGASESVGKHMLEACNNNLEMAVTMFLDGGGIAEEPSTSSASVSTVRPHTEEEVRAPIPQKQEILVEPEPLFGAPKRRRPARSIFDGFRDFQTETIRQEQELRNGGAIDKKLTTLADLFRPPIDLMHKGSFETAKECGQMQNKWLMINIQNVQDFACQCLNRDVWSNEAVKNIIREHFIFWQVYHDSEEGQRYIQFYKLGDFPYVSILDPRTGQKLVEWHQLDVSSFLDQVTGFLGEHGQLDGLSSSPPKKCARSESLIDASEDSQLEAAIRASLQETHFDSTQTKQDSRSDEESESELFSGSEEFISVCGSDEEEEVENLAKSRKSPHKDLGHRKEENRRPLTEPPVRTDPGTATNHQGLPAVDSEILEMPPEKADGVVEGIDVNGPKAQLMLRYPDGKREQITLPEQAKLLALVKHVQSKGYPNERFELLTNFPRRKLSHLDYDITLQEAGLCPQETVFVQERN
B3: Flag-p47 (other, UniProt O35987 1-370, looked up)
chain: MAEERQDALREFVAVTGAEEDRARFFLESAGWDLQIALASFYEDGGDEDIVTISQATPSSVSRGTAPSDNRVTSFRDLIHDQDEEEEEEEGQRFYAGGSERSGQQIVGPPRKKSPNELVDDLFKGAKEHGAVAVERVTKSPGETSKPRPFAGGGYRLGAAPEEESAYVAGERRRHSGQDVHVVLKLWKTGFSLDNGDLRSYQDPSNAQFLESIRRGEVPAELRRLAHGGQVNLDMEDHRDEDFVKPKGAFKAFTGEGQKLGSTAPQVLNTSSPAQQAENEAKASSSILINEAEPTTNIQIRLADGGRLVQKFNHSHRISDIRLFIVDARPAMAATSFVLMTTFPNKELADENQTLKEANLLNAVIVQRLT
notes: also called RDB 2148; not shown: N-terminal Flag tag
B4: Flag-UBXD7 (other, UniProt O94888 1-489, looked up)
chain: MAAHGGSAASSALKGLIQQFTTITGASESVGKHMLEACNNNLEMAVTMFLDGGGIAEEPSTSSASVSTVRPHTEEEVRAPIPQKQEILVEPEPLFGAPKRRRPARSIFDGFRDFQTETIRQEQELRNGGAIDKKLTTLADLFRPPIDLMHKGSFETAKECGQMQNKWLMINIQNVQDFACQCLNRDVWSNEAVKNIIREHFIFWQVYHDSEEGQRYIQFYKLGDFPYVSILDPRTGQKLVEWHQLDVSSFLDQVTGFLGEHGQLDGLSSSPPKKCARSESLIDASEDSQLEAAIRASLQETHFDSTQTKQDSRSDEESESELFSGSEEFISVCGSDEEEEVENLAKSRKSPHKDLGHRKEENRRPLTEPPVRTDPGTATNHQGLPAVDSEILEMPPEKADGVVEGIDVNGPKAQLMLRYPDGKREQITLPEQAKLLALVKHVQSKGYPNERFELLTNFPRRKLSHLDYDITLQEAGLCPQETVFVQERN
notes: Wild-type plasmid in pCMV5B; expressed in 293 or HeLa cells and pulled down on anti-Flag beads; also called RDB 2155; not shown: N-terminal Flag tag
B5: endogenous UFD1 (other, human, UniProt Q92890-1 1-343, looked up)
chain: MFSFNMFDHPIPRVFQNRFSTQYRCFSVSMLAGPNDRSDVEKGGKIIMPPSALDQLSRLNITYPMLFKLTNKNSDRMTHCGVLEFVADEGICYLPHWMMQNLLLEEDGLVQLETVNLQVATYSKSKFCYLPHWMMQNLLLEEGGLVQVESVNLQVATYSKFQPQSPDFLDITNPKAVLENALRNFACLTTGDVIAINYNEKIYELRVMETKPDKAVSIIECDMNVDFDAPLGYKEPERQVQHEESTEGEADHSGYAGELGFRAFSGSGNRLDGKKKGVEPSPSPIKPGDIKRGIPNYEFKLGKITFIRNSRPLVKKVEEDEAGGRFVAFSGEGQSLRKKGRKP

Columns and labels:
Cullin 1 = biological target: T3, Cullin 1 (human, UniProt Q13616 1-776, limits assumed); assay: Flag co-IP, HeLa cells, western blot
T3 construct: also called CUL1

Cullin 2 = biological target: T4, Cullin 2 (human, UniProt Q13617 1-745); assay: Flag co-IP, HeLa cells, western blot
T4 construct: also called CUL2

endogenous p97 [1] = biological target: T5, endogenous p97 (human, UniProt P55072 2-806); assay: Flag co-IP from HeLa cells, western blot
T5 construct: also called VCP

endogenous p97 [2] = biological target: T5, endogenous p97; assay: Superdex 200 gel filtration of HeLa extracts, western blot
endogenous p97 [3] = biological target: T5, endogenous p97; assay: Flag co-IP, 293 cells, MudPIT MS
Procedure: (§1) For immunoprecipitation experiments, the cells were lysed in buffer A (50 mM HEPES/KOH, pH 7.5; 5 mM Mg(OAc)₂; 70 mM KOAc; 0.2% Triton X-100; 10% glycerol; 0.2 mM EDTA; protease inhibitors) and incubated with anti-Flag agarose beads (Sigma) or anti-Myc sepharose beads (Covance).
(§2) Mass spectrometrical sample analysis was performed as described previously (Graumann et al., 2004) using a high-pressure liquid chromatography pump (Agilent) in line to a LCQ DecaXP electrospray ion trap mass spectrometer (ThermoFinnigan). In brief, 2-4 mg of protein extract were incubated with anti-Flag or anti-Myc beads and the immunoprecipitated proteins were eluted with saturated urea. The eluates were then proteolitically digested using sequentially endoproteinase Lys-C and trypsin. The resulting peptide mixtures were pressure-loaded onto triphasic microcapillary columns and sample separation was achieved using a chromatography program consisting of six salt steps, each followed by an organic gradient. The eluting peptides were electrosprayed into the mass spectrometer and the column eluate was continuously analyzed. One full-range mass scan ([…]) was followed by three data-dependent tandem mass spectrometry (MS/MS) spectra. Sequence database matching was performed against the IPI human database (Kersey et al., 2004) version 3.15.1 using Sequest (Eng et al., 1994) and the results were filtered with DTASelect (Tabb et al., 2002), using the parameters indicated in Graumann et al. (2004).

endogenous NPL4 [4] = biological target: T1, endogenous NPL4; assay: Flag co-IP, 293 cells, MudPIT MS
Procedure: as §1, §2

endogenous NPL4 [5] = biological target: T1, endogenous NPL4; assay: Flag co-IP, mass spectrometry and immunoblotting
[6] = biological target: T2, Ubiquitin conjugation factor E4 B, …; assay: co-IP, MudPIT MS
Flag-p47 = biological target: B3; assay: Flag co-IP, mass spectrometry and immunoblotting

T5 sequence (P55072 2-806 limits assumed): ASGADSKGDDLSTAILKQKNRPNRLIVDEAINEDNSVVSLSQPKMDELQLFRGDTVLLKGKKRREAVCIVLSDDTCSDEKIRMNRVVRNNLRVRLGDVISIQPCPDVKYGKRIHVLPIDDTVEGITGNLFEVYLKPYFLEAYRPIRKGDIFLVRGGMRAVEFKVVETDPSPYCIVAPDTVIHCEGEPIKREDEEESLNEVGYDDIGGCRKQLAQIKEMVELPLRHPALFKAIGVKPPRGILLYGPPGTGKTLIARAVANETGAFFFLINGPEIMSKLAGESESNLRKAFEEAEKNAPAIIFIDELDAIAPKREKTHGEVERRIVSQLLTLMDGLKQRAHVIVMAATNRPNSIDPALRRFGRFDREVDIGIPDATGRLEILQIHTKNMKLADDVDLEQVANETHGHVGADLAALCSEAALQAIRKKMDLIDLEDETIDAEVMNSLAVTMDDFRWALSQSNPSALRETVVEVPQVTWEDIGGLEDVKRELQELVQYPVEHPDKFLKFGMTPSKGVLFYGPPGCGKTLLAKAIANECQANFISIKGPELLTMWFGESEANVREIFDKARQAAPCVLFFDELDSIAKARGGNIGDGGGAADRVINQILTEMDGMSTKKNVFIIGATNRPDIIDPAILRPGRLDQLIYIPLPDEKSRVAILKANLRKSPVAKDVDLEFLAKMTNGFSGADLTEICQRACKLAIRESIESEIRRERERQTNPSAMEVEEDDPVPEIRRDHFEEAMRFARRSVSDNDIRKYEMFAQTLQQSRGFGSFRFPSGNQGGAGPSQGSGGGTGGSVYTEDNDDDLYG
T4 sequence (Q13617 whole entry): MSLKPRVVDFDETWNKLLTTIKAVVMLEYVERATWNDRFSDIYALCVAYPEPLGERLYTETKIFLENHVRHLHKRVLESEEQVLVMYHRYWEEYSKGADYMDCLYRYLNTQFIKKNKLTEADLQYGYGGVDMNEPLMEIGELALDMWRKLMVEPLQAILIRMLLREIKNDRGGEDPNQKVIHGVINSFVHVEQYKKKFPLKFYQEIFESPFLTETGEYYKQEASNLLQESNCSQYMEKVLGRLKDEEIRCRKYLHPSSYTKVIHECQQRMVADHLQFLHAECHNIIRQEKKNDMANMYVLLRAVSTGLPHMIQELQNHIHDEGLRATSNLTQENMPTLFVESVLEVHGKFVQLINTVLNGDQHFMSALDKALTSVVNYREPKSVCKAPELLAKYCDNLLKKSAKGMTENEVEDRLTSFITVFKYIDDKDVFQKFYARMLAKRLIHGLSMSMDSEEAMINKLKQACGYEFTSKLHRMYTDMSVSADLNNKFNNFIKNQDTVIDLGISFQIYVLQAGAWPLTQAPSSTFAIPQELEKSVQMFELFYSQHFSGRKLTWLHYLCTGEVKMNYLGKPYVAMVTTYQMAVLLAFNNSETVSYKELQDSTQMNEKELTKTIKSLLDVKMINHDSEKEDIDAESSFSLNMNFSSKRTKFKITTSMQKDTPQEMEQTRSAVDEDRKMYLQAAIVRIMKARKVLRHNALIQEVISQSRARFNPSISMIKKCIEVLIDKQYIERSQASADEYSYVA
T3 sequence (Q13616 whole entry): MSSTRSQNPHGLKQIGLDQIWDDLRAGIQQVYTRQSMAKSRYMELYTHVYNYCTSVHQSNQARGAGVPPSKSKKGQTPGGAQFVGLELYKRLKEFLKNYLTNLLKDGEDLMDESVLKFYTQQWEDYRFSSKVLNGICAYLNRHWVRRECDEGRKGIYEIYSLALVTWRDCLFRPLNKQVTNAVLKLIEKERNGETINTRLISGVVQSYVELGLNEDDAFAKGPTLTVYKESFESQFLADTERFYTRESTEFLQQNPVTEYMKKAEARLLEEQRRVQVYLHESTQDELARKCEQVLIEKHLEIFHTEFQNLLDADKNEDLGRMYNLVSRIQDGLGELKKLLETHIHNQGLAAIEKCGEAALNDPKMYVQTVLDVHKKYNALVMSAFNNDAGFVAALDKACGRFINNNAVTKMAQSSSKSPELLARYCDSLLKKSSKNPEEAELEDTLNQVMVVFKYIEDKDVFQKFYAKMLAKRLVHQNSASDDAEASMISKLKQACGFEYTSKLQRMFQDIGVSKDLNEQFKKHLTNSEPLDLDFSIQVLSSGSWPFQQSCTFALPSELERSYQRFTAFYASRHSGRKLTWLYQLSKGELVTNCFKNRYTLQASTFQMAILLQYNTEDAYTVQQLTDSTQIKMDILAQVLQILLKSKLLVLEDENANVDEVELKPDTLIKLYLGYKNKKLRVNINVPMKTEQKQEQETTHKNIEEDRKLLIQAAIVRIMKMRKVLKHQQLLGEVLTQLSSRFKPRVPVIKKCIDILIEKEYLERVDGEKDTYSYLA

B1: binds (Cullin 1); binds (Cullin 2); no binding (endogenous p97 [1]).

B2: binds (endogenous p97 [2]).

B3 was tested, and the sequence count (endogenous p97 [3]) was 172, the sequence coverage (endogenous p97 [3]) was 82.7% and the spectrum count (endogenous p97 [3]) was 1610. The sequence count (endogenous NPL4 [4]) was 2, the sequence coverage (endogenous NPL4 [4]) was 6% and the spectrum count (endogenous NPL4 [4]) was 2. B3: no binding (endogenous NPL4 [5]).

For B4, the binding result [6] was “no binding”, the sequence count (endogenous p97 [3]) was 77 and the sequence coverage (endogenous p97 [3]) was 61.2%. The spectrum count (endogenous p97 [3]) was 375.

B5: no binding (Flag-p47).
